The data set concerns the molecule itself. Put plainly: crystal structure; T. thermophilus 70S ribosome 4.4 uM with mRNA MOO4b (2'-O-methylated A-site codon) and tRNAfMet, YoeB added to 44 uM, buffer G (5 mM HEPES pH 7.5, 50 mM KCl, 10 mM NH4Cl, 10 mM Mg-acetate, 6 mM 2-mercaptoethanol); pre-cleavage state, 3.35 A.

Usually stoichiometry N stands for the number of molecules, sites or subunits per partner or assembly.

B1: Escherichia coli YoeB (enzyme, UniProt P69348 1-84, looked up)
chain: MKLIWSEESWDDYLYWQETDKRIVKKINELIKDTRRTPFEGKGKPEPLKHNLSGFWSRRITEEHRLVYAVTDDSLLIAACRYHY
notes: In the crystal two copies (monomers A and B) sit on the ribosomal A site as a homodimer; also called YeoB; monomer A; source: E. coli BL21(DE3), co-expressed with His-tagged YefM
B1: the “stoichiometry N” value came to 2.

Source of the values: article PMC3814384, “YoeB–ribosome structure: a canonical RNase that requires the ribosome for its specific activity” (Nucleic Acids Research, 2013).
